Where “and” joins values, the source holds several entries; their conditions need not be identical. Equal entries are not always repeated.
Columns and labels:
生物素化重组人白细胞介素1β (rhIL-1β) [1] = biological target: T1, 生物素化重组人白细胞介素1β (rhIL-1β) (human, UniProt P01584 117-269, biotinylated (site not stated)); experiment: BLI (Fortebio Octet QK), summary range of the two runs
T1 construct: Antigen was biotinylated and desalted before the Fortebio Octet measurement; also called 抗原rhIL-1β

生物素化重组人白细胞介素1β (rhIL-1β) [2] = biological target: T1, 生物素化重组人白细胞介素1β (rhIL-1β); experiment: BLI (Fortebio Octet QK), biotinylated rhIL-1β, antibody 40-1.25 nM, run 1
生物素化重组人白细胞介素1β (rhIL-1β) [3] = biological target: T1, 生物素化重组人白细胞介素1β (rhIL-1β); experiment: BLI (Fortebio Octet QK), biotinylated rhIL-1β, antibody 40-1.25 nM, run 2

Kd (生物素化重组人白细胞介素1β (rhIL-1β) [1]): 0.01 nM and 0.025 nM | Kd (生物素化重组人白细胞介素1β (rhIL-1β) [2]): 0.0211 nM | koff (生物素化重组人白细胞介素1β (rhIL-1β) [2]): 3.02e-06 s⁻¹ | kon (生物素化重组人白细胞介素1β (rhIL-1β) [2]): 143000 M⁻¹ s⁻¹ | Kd (生物素化重组人白细胞介素1β (rhIL-1β) [3]): 0.0128 nM | koff (生物素化重组人白细胞介素1β (rhIL-1β) [3]): 2.16e-06 s⁻¹ | kon (生物素化重组人白细胞介素1β (rhIL-1β) [3]): 166000 M⁻¹ s⁻¹
B1: 人源化抗人白细胞介素1β(hIL-1β)单克隆抗体 (antibody, human IgG1, kappa, V domains shown)
VH: EVQLVESGGGLVQPGGSLRLSCAVSGFSLDVYTMTWVRQAPGKGLEWIGYIWSGGSASYASWAKGRFTISKDSSKNTVYLQINSLRAEDTAVYFCARVKMISNIETFDPWGPGTLVTVSS
VL: DIQMTQSPSSVSASVGDRVTIKCQASERIYSGLAWYQQKPGKRPKLLIYRASTLASGVPSRFSGSGSGTDFTLTISSLQPEDFATYYCQQGVSSSDIDNVFGGGTKVEIKR
notes: Full light and heavy chains; Expressed in CHO DG44 cells and purified; also called 人源化抗hIL-1β单克隆抗体; humanized form of rabbit clone Q26

— CN103588878A (JIANGSU T MAB BIOPHARMA, dated 2014)
